Experimental data from US20240400715A1 (VIBRANT PHARMA, published 2024).
Where a chain is given by its changes, count along the chain named. One block for each binder: values may come before it.

Legend:
[1] = target: T1, human CD3ε/δ (ACRO systems, CDD-H52W1) (human, UniProt P07766 23-126; P04234 22-105); experiment: serum-stability ELISA, Day 1 vs Day 0
T1 construct: bought recombinant heterodimer; also called human CD3 epsilon/delta; Human CD3ε/CD3δ
Protocol: (§1) The samples to be tested were centrifuged at 4° C. at 12000 rpm for 30 minutes to remove the precipitate. 200 μl of each sample to be tested (0.5 mg/ml) was collected in a 1.5 ml Eppendorf tube. An equal volume of human serum (GEMINI, H2OYOOK) was added, mixed thoroughly, and the mixture was incubated in a 37° C. constant temperature CO₂ incubator. For a total of 10 days, 40 μl samples was aspirated every day and stored at −20° C.
(§2) Enzyme-linked immunosorbent assay (ELISA) was used to test the bispecific antibodies' binding to human CEA and human CD3 epsilon/delta antigen. The steps are as follows: the antigen human CD3ε/δ (ACRO systems, CDD-H52W1) and the recombinant tumor antigen human CEA (CEACAM-5/CD66e, ACRO systems, CE5-H5226) were diluted to 1 μg/ml with PBS, and then added to the 96-well plate at 100 μl per well. The wells were coated overnight at 4° C. After washing 3 times with 0.05% PBST, 200 μl 5% skimmed milk powder was added to each well and incubated at 37° C. for 2 h. After washing 3 times with 0.05% PBST, 100 μl primary antibody sample (10 μg/ml) was added to each well, and incubated at 37° C. for 2 h. After washing 3 times with 0.05% PBST, 100 μl (1:6000) diluted secondary antibody goat anti-human Fc-HRP (sigma, A2170) was added to each well, incubated at room temperature for 1 h. After washing 8 times with 0.05% PBST, 50 μl TMB color developing solution was added to each well, and incubated at room temperature for 10-15 min. 50 μl 1 mM HCl was added to each well to stop the color development. 450 nm Absorbance (OD) was read.
(§3) The binding of antibodies to antigen was calculated according to the following formula: Binding (%)=[(ODdayn−ODb)/(ODday0−ODb)]×100%. ODdayn: experimental well (the protein was stored in the serum for n days); ODday0: control well (the protein was not stored in the serum); ODb: blank well (no primary antibody added).

[2] = target: T1, human CD3ε/δ (ACRO systems, CDD-H52W1); experiment: serum-stability ELISA, Day 2 vs Day 0
Protocol: as §1, §2, §3

[3] = target: T1, human CD3ε/δ (ACRO systems, CDD-H52W1); experiment: serum-stability ELISA, Day 5 vs Day 0
Protocol: as §1, §2, §3

[4] = target: T1, human CD3ε/δ (ACRO systems, CDD-H52W1); experiment: serum-stability ELISA, Day 6 vs Day 0
Protocol: as §1, §2, §3

[5] = target: T1, human CD3ε/δ (ACRO systems, CDD-H52W1); experiment: serum-stability ELISA, Day 7 vs Day 0
Protocol: as §1, §2, §3

[6] = target: T1, human CD3ε/δ (ACRO systems, CDD-H52W1); experiment: serum-stability ELISA, Day 9 vs Day 0
Protocol: as §1, §2, §3

[7] = target: T1, human CD3ε/δ (ACRO systems, CDD-H52W1); experiment: serum-stability ELISA, Day 10 vs Day 0
Protocol: as §1, §2, §3

[8] = target: T1, human CD3ε/δ (ACRO systems, CDD-H52W1); experiment: serum-stability ELISA, Day 0 (reference)
Protocol: as §1, §2, §3

[9] = target: T1, human CD3ε/δ (ACRO systems, CDD-H52W1); experiment: serum-stability ELISA, Day 1 vs Day 0; remark: listed apart in the source
Protocol: as §1, §2, §3

[10] = target: T1, human CD3ε/δ (ACRO systems, CDD-H52W1); experiment: serum-stability ELISA, Day 2 vs Day 0; remark: listed apart in the source
Protocol: as §1, §2, §3

[11] = target: T1, human CD3ε/δ (ACRO systems, CDD-H52W1); experiment: serum-stability ELISA, Day 5 vs Day 0; remark: listed apart in the source
Protocol: as §1, §2, §3

[12] = target: T1, human CD3ε/δ (ACRO systems, CDD-H52W1); experiment: serum-stability ELISA, Day 6 vs Day 0; remark: listed apart in the source
Protocol: as §1, §2, §3

[13] = target: T1, human CD3ε/δ (ACRO systems, CDD-H52W1); experiment: serum-stability ELISA, Day 7 vs Day 0; remark: listed apart in the source
Protocol: as §1, §2, §3

[14] = target: T1, human CD3ε/δ (ACRO systems, CDD-H52W1); experiment: serum-stability ELISA, Day 9 vs Day 0; remark: listed apart in the source
Protocol: as §1, §2, §3

[15] = target: T1, human CD3ε/δ (ACRO systems, CDD-H52W1); experiment: serum-stability ELISA, Day 10 vs Day 0; remark: listed apart in the source
Protocol: as §1, §2, §3

[16] = target: T1, human CD3ε/δ (ACRO systems, CDD-H52W1); experiment: serum-stability ELISA, Day 0 (reference); remark: listed apart in the source

B1: 110 (CEA-Knob+Hole-Fab) (bispecific antibody, human IgG4 S228P, kappa, F234A L235A)
chain: EVQLVESGGGFVQAGESLTLSCTSSTLTFTPYRMAWYRQAPGKQRDLVADISSGDGRTTNYADFAKGRFTISRDNIKNTVFLRMTNLKPEDTAVYYCNTFVSFVGIARSWGQGTQVTVSSESKYGPPCPPCPAPEAAGGPSVFLFPPKPKDTLMISRTPEVTCVVVDVSQEDPEVQFNWYVDGVEVHNAKTKPREEQFNSTYRVVSVLTVLHQDWLNGKEYKCKVSNKGLPSSIEKTISKAKGQPREPQVYTLPPCQEEMTKNQVSLWCLVKGFYPSDIAVEWESNGQPENNYKTTPPVLDSDGSFFLYSRLTVDKSRWQEGNVFSCSVMHEALHNHYTQKSLSLSL
heavy: ESKYGPPCPPCPAPEAAGGPSVFLFPPKPKDTLMISRTPEVTCVVVDVSQEDPEVQFNWYVDGVEVHNAKTKPREEQFNSTYRVVSVLTVLHQDWLNGKEYKCKVSNKGLPSSIEKTISKAKGQPREPQVCTLPPSQEEMTKNQVSLSCAVKGFYPSDIAVEWESNGQPENNYKTTPPVLDSDGSFFLVSRLTVDKSRWQEGNVFSCSVMHEALHNRFTQKSLSLSLGGGGSGGGGSEVKLLESGGGLVQPKGSLKLSCAASGFTFNTYAMNWVRQAPGKGLEWVARIRSKYNNYATYYADSVKDRFTISRDDSQSILYLQMNNLKTEDTAMYYCVRHGNFGNSYVSWFAYWGQGTLVTVSSASTKGPSVFPLAPCSRSTSESTAALGCLVKDYFPEPVTVSWNSGALTSGVHTFPAVLQSSGLYSLSSVVTVPSSSLGTKTYTCNVDHKPSNTKVDKRV
light: QAVVTQESALTTSPGETVTLTCRSSTGAVTTSNYANWVQEKPDHLFTGLIGGTNKRAPGVPARFSGSLIGDKAALTITGAQTEDEAIYFCALWYSNLWVFGGGTKVEIKRTVAAPSVFIFPPSDEQLKSGTASVVCLLNNFYPREAKVQWKVDNALQSGNSQESVTEQDSKDSTYSLSSTLTLSKADYEKHKVYACEVTHQGLSSPVTKSFNRGEC
notes: TA1 Fab, C17 VHH, IgG4 Fc KIH
Binding % [1]: 68.5% | Binding % [2]: 74.3% | Binding % [3]: 78.1% | Binding % [4]: 76.9% | Binding % [5]: 77.5% | Binding % [6]: 77% | Binding % [7]: 56.1% | Binding % [8]: 100%

B2: 112 (Knob-CEA+Hole-Fab) (bispecific antibody, human IgG4 S228P, kappa, F234A L235A)
chain: ESKYGPPCPPCPAPEAAGGPSVFLFPPKPKDTLMISRTPEVTCVVVDVSQEDPEVQFNWYVDGVEVHNAKTKPREEQFNSTYRVVSVLTVLHQDWLNGKEYKCKVSNKGLPSSIEKTISKAKGQPREPQVYTLPPCQEEMTKNQVSLWCLVKGFYPSDIAVEWESNGQPENNYKTTPPVLDSDGSFFLYSRLTVDKSRWQEGNVFSCSVMHEALHNHYTQKSLSLSLGGGGSGGGGSEVQLVESGGGFVQAGESLTLSCTSSTLTFTPYRMAWYRQAPGKQRDLVADISSGDGRTTNYADFAKGRFTISRDNIKNTVFLRMTNLKPEDTAVYYCNTFVSFVGIARSWGQGTQVTVSS
heavy: B1 heavy
light: B1 light
notes: TA1 Fab, C17 VHH, IgG4 Fc KIH
Binding % [1]: 99% | Binding % [2]: 102% | Binding % [3]: 104% | Binding % [4]: 110% | Binding % [5]: 104% | Binding % [6]: 102% | Binding % [7]: 98.4% | Binding % [8]: 100%

B3: 111 (Knob+CEA-Hole-Fab) (bispecific antibody, human IgG4 S228P, kappa, F234A L235A)
chain: ESKYGPPCPPCPAPEAAGGPSVFLFPPKPKDTLMISRTPEVTCVVVDVSQEDPEVQFNWYVDGVEVHNAKTKPREEQFNSTYRVVSVLTVLHQDWLNGKEYKCKVSNKGLPSSIEKTISKAKGQPREPQVYTLPPCQEEMTKNQVSLWCLVKGFYPSDIAVEWESNGQPENNYKTTPPVLDSDGSFFLYSRLTVDKSRWQEGNVFSCSVMHEALHNHYTQKSLSLSL
heavy: EVQLVESGGGFVQAGESLTLSCTSSTLTFTPYRMAWYRQAPGKQRDLVADISSGDGRTTNYADFAKGRFTISRDNIKNTVFLRMTNLKPEDTAVYYCNTFVSFVGIARSWGQGTQVTVSSESKYGPPCPPCPAPEAAGGPSVFLFPPKPKDTLMISRTPEVTCVVVDVSQEDPEVQFNWYVDGVEVHNAKTKPREEQFNSTYRVVSVLTVLHQDWLNGKEYKCKVSNKGLPSSIEKTISKAKGQPREPQVCTLPPSQEEMTKNQVSLSCAVKGFYPSDIAVEWESNGQPENNYKTTPPVLDSDGSFFLVSRLTVDKSRWQEGNVFSCSVMHEALHNRFTQKSLSLSLGGGGSGGGGSEVKLLESGGGLVQPKGSLKLSCAASGFTFNTYAMNWVRQAPGKGLEWVARIRSKYNNYATYYADSVKDRFTISRDDSQSILYLQMNNLKTEDTAMYYCVRHGNFGNSYVSWFAYWGQGTLVTVSSASTKGPSVFPLAPCSRSTSESTAALGCLVKDYFPEPVTVSWNSGALTSGVHTFPAVLQSSGLYSLSSVVTVPSSSLGTKTYTCNVDHKPSNTKVDKRV
light: B1 light
notes: TA1 Fab, C17 VHH, IgG4 Fc KIH
Binding % [1]: 93.2% | Binding % [2]: 99.3% | Binding % [3]: 103% | Binding % [4]: 99.2% | Binding % [5]: 106% | Binding % [6]: 96.5% | Binding % [7]: 78.2% | Binding % [8]: 100%

More lines, now with the values ahead:

Binding % [9]: 104% | Binding % [10]: 76.3% | Binding % [11]: 105% | Binding % [12]: 102% | Binding % [13]: 104% | Binding % [14]: 101% | Binding % [15]: 98.8% | Binding % [16]: 100%
B4: 201 (CEA-Fab-Knob-+Hole) (bispecific antibody, human IgG4 S228P, kappa, F234A L235A)
heavy: EVKLLESGGGLVQPKGSLKLSCAASGFTFNTYAMNWVRQAPGKGLEWVARIRSKYNNYATYYADSVKDRFTISRDDSQSILYLQMNNLKTEDTAMYYCVRHGNFGNSYVSWFAYWGQGTLVTVSSASTKGPSVFPLAPCSRSTSESTAALGCLVKDYFPEPVTVSWNSGALTSGVHTFPAVLQSSGLYSLSSVVTVPSSSLGTKTYTCNVDHKPSNTKVDKRVESKYGPPCPPCPAPEAAGGPSVFLFPPKPKDTLMISRTPEVTCVVVDVSQEDPEVQFNWYVDGVEVHNAKTKPREEQFNSTYRVVSVLTVLHQDWLNGKEYKCKVSNKGLPSSIEKTISKAKGQPREPQVYTLPPCQEEMTKNQVSLWCLVKGFYPSDIAVEWESNGQPENNYKTTPPVLDSDGSFFLYSRLTVDKSRWQEGNVFSCSVMHEALHNHYTQKSLSLSL
chain: B3 chain with Y131C, C136S, W148S, L150A, Y189V, H217R, Y218F
light: QAVVTQESALTTSPGETVTLTCRSSTGAVTTSNYANWVQEKPDHLFTGLIGGTNKRAPGVPARFSGSLIGDKAALTITGAQTEDEAIYFCALWYSNLWVFGGGTKVEIKRTVAAPSVFIFPPSDEQLKSGTASVVCLLNNFYPREAKVQWKVDNALQSGNSQESVTEQDSKDSTYSLSSTLTLSKADYEKHKVYACEVTHQGLSSPVTKSFNRGECGGGGSGGGGSEVQLVESGGGFVQAGESLTLSCTSSTLTFTPYRMAWYRQAPGKQRDLVADISSGDGRTTNYADFAKGRFTISRDNIKNTVFLRMTNLKPEDTAVYYCNTFVSFVGIARSWGQGTQVTVSS
notes: VHH fused after CL of the light chain

Binding % [9]: 108% | Binding % [10]: 86.8% | Binding % [11]: 110% | Binding % [12]: 108% | Binding % [13]: 108% | Binding % [14]: 104% | Binding % [15]: 99.1% | Binding % [16]: 100%
B5: 202 (Knob+CEA-Fab-Hole) (bispecific antibody, human IgG4 S228P, kappa, F234A L235A)
chain: B3 chain
heavy: B4 heavy with Y354C, C359S, W371S, L373A, Y412V, H440R, Y441F
light: B4 light
notes: as for B4
